Experimental data published in article PMC5419741.

Columns and labels:
[1] = test system: LARP1 DM15 Y922 mutant (Homo sapiens), Q6PKG0-3; test: EMSA; details: 5' m7Gppp cap; Competition assays: 20 mM Tris pH 8, 150 mM NaCl, 10% glycerol, 1 mM DTT, 0.5 ug BSA, 0.5 ug tRNA, 30 min on ice, native gel; EMSA as in Lahr et al. 2015 with …
[2] = test system: LARP1 DM15 E886 mutant (Homo sapiens), Q6PKG0-3; test: EMSA; details: 5' m7Gppp cap; Competition assays: 20 mM Tris pH 8, 150 mM NaCl, 10% glycerol, 1 mM DTT, 0.5 ug BSA, 0.5 ug tRNA, 30 min on ice, native gel; EMSA as in Lahr et al. 2015 with …

## CCUCUUUUCCGUGGCGCCUCGGAGGCGUUCAGCUGCUUCAAG [m7Gppp-RPS6 42mer (capped TOP)]
[1]
  Kd: 2.6 µM
[2]
  Kd: 8 µM
